In patent US20220315909:

Recombinant Mouse u-Plasminogen Activator/Urokinase, sequence (chain, as listed by the source): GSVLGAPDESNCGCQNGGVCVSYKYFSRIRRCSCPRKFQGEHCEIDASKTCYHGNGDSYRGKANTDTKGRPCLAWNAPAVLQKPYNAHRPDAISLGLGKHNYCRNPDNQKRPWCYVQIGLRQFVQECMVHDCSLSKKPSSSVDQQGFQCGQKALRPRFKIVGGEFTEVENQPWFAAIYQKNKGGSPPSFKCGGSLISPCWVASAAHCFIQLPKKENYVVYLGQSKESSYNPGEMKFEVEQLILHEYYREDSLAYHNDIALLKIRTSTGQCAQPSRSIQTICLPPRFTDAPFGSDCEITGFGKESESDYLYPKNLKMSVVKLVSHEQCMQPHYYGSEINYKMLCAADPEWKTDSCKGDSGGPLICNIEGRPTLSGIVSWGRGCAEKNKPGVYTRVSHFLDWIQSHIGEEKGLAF

Recombinant Human u-Plasminogen Activator/Urokinase
cleavage ratio (PAR) on peptide array, human uPA 1000 nM (SEQ ID NO 17998): showed higher cleavage ratios than the sequence shown as SEQ ID NO: 3 for both the cleavages by human uPA and human MT-SP1 | cleavage ratio (PAR) on peptide array, human uPA 1000 nM (SEQ ID NO 18001): showed higher cleavage ratios than the sequence shown as SEQ ID NO: 3 for both the cleavages by human uPA and human MT-SP1 | cleavage ratio (PAR) on peptide array, human uPA 1000 nM (SEQ ID NO 17994): showed higher cleavage ratios than the sequence shown as SEQ ID NO: 3 for both the cleavages by human uPA and human MT-SP1 | cleavage ratio (PAR) on peptide array, human uPA 1000 nM (SEQ ID NOs: 5-17201): showed higher cleavage ratios than the sequence shown as SEQ ID NO: 2 for both the cleavages by human uPA and human MT-SP1 | cleavage ratio (PAR) on peptide array, human uPA 1000 nM (SEQ ID NO 17996): showed higher cleavage ratios than the sequence shown as SEQ ID NO: 3 for both the cleavages by human uPA and human MT-SP1 | cleavage ratio (PAR) on peptide array, human uPA 1000 nM (SEQ ID NOs: 17202-17993): showed higher cleavage ratios than the sequence shown as SEQ ID NO: 3 for both the cleavages by human uPA and human MT-SP1 | cleavage ratio (PAR) on peptide array, human uPA 1000 nM (SEQ ID NO 18002): showed higher cleavage ratios than the sequence shown as SEQ ID NO: 3 for both the cleavages by human uPA and human MT-SP1 | cleavage ratio (PAR) on peptide array, human uPA 1000 nM (SEQ ID NO 18003): showed higher cleavage ratios than the sequence shown as SEQ ID NO: 3 for both the cleavages by human uPA and human MT-SP1 | cleavage ratio (PAR) on peptide array, human uPA 1000 nM (SEQ ID NO 17999): showed higher cleavage ratios than the sequence shown as SEQ ID NO: 3 for both the cleavages by human uPA and human MT-SP1 | cleavage ratio (PAR) on peptide array, human uPA 1000 nM (SEQ ID NO 18000): showed higher cleavage ratios than the sequence shown as SEQ ID NO: 3 for both the cleavages by human uPA and human MT-SP1 | cleavage ratio (PAR) on peptide array, human uPA 1000 nM (SEQ ID NO 17997): showed higher cleavage ratios than the sequence shown as SEQ ID NO: 3 for both the cleavages by human uPA and human MT-SP1 | cleavage ratio (PAR) on peptide array, human uPA 1000 nM (SEQ ID NO 17995): showed higher cleavage ratios than the sequence shown as SEQ ID NO: 3 for both the cleavages by human uPA and human MT-SP1

Recombinant Mouse u-Plasminogen Activator/Urokinase
cleavage ratio (PAR) on peptide array, mouse uPA 1000 nM (SEQ ID NO 17998): also showed higher cleavage ratios for mouse uPA than the sequence shown as SEQ ID NO: 3 | cleavage ratio (PAR) on peptide array, mouse uPA 1000 nM (SEQ ID NO 17994): also showed higher cleavage ratios for mouse uPA than the sequence shown as SEQ ID NO: 3 | cleavage ratio (PAR) on peptide array, mouse uPA 1000 nM (SEQ ID NO 17202): also showed higher cleavage ratios for mouse uPA than the sequence shown as SEQ ID NO: 3 | cleavage ratio (PAR) on peptide array, mouse uPA 1000 nM (SEQ ID NO 17996): also showed higher cleavage ratios for mouse uPA than the sequence shown as SEQ ID NO: 3 | cleavage ratio (PAR) on peptide array, mouse uPA 1000 nM (SEQ ID NOs: 5-3204): showed higher cleavage ratios than the sequence shown as SEQ ID NO: 2 for all the cleavages by human uPA, human MT-SP1, and mouse uPA | cleavage ratio (PAR) on peptide array, mouse uPA 1000 nM (SEQ ID NO 17203): also showed higher cleavage ratios for mouse uPA than the sequence shown as SEQ ID NO: 3 | cleavage ratio (PAR) on peptide array, mouse uPA 1000 nM (SEQ ID NO 17999): also showed higher cleavage ratios for mouse uPA than the sequence shown as SEQ ID NO: 3 | cleavage ratio (PAR) on peptide array, mouse uPA 1000 nM (SEQ ID NO 17997): also showed higher cleavage ratios for mouse uPA than the sequence shown as SEQ ID NO: 3 | cleavage ratio (PAR) on peptide array, mouse uPA 1000 nM (SEQ ID NO 17995): also showed higher cleavage ratios for mouse uPA than the sequence shown as SEQ ID NO: 3
